Here are results for 1 protein from ChEMBL document CHEMBL2073889, “ATP-dependent transport of beta-estradiol 17-(beta-D-glucuronide) in rat canalicular membrane vesicles” (Am J Physiol, 1996).

Substrate in this data set: C[C@]12CC[C@@H]3c4ccc(O)cc4CC[C@H]3[C@@H]1CC[C@@H]2O[C@@H]1O[C@H](C(=O)O)[C@@H](O)[C@H](O)[C@H]1O
As to the kind of experiment: TP_TRANSPORTER: uptake in bile canalicular membrane vesicles from SD rat. Format: functional, cell membranes, Sprague-Dawley, Bile canalicular membrane vesicle.

B1: ATP-binding cassette sub-family C member 2 (Rattus norvegicus) (protein)
chain: MDKFCNSTFWDLSLLESPEADLPLCFEQTVLVWIPLGFLWLLAPWQLYSVYRSRTKRSSITKFYLAKQVFVVFLLILAAIDLSLALTEDTGQATVPPVRYTNPILYLCTWLLVLAVQHSRQWCVRKNSWFLSLFWILSVLCGVFQFQTLIRALLKDSKSNMAYSYLFFVSYGFQIVLLILTAFSGPSDSTQTPSVTASFLSSITFSWYDRTVLKGYKHPLTLEDVWDIDEGFKTRSVTSKFEAAMTKDLQKARQAFQRRLQKSQRKPEATLHGLNKKQSQSQDVLVLEEAKKKSEKTTKDYPKSWLIKSLFKTFHVVILKSFILKLIHDLLVFLNPQLLKLLIGFVKSSNSYVWFGYICAILMFAVTLIQSFCLQSYFQHCFVLGMCVRTTVMSSIYKKALTLSNLARKQYTIGETVNLMSVDSQKLMDATNYMQLVWSSVIQITLSIFFLWRELGPSILAGVGVMVLLIPVNGVLATKIRNIQVQNMKNKDKRLKIMNEILSGIKILKYFAWEPSFQEQVQGIRKKELKNLLRFGQLQSLLIFILQITPILVSVVTFSVYVLVDSANVLNAEKAFTSITLFNILRFPLSMLPMVTSSILQASVSVDRLERYLGGDDLDTSAIRRVSNFDKAVKFSEASFTWDPDLEATIQDVNLDIKPGQLVAVVGTVGSGKSSLVSAMLGEMENVHGHITIQGSTAYVPQQSWIQNGTIKDNILFGSEYNEKKYQQVLKACALLPDLEILPGGDMAEIGEKGINLSGGQKQRVSLARAAYQDADIYILDDPLSAVDAHVGKHIFNKVVGPNGLLAGKTRIFVTHGIHFLPQVDEIVVLGKGTILEKGSYRDLLDKKGVFARNWKTFMKHSGPEGEATVNNDSEAEDDDDGLIPTMEEIPEDAASLAMRRENSLRRTLSRSSRSSSRRGKSLKNSLKIKNVNVLKEKEKEVEGQKLIKKEFVETGKVKFSIYLKYLQAVGWWSILFIILFYGLNNVAFIGSNLWLSAWTSDSDNLNGTNNSSSHRDMRIGVFGALGLAQGICLLISTLWSIYACRNASKALHGQLLTNILRAPMRFFDTTPTGRIVNRFSGDISTVDDLLPQTLRSWMMCFFGIAGTLVMICMATPVFAIIIIPLSILYISVQVFYVATSRQLRRLDSVTKSPIYSHFSETVTGLPIIRAFEHQQRFLAWNEKQIDINQKCVFSWITSNRWLAIRLELVGNLVVFCSALLLVIYRKTLTGDVVGFVLSNALNITQTLNWLVRMTSEAETNIVAVERISEYINVENEAPWVTDKRPPADWPRHGEIQFNNYQVRYRPELDLVLKGITCNIKSGEKVGVVGRTGAGKSSLTNCLFRILESAGGQIIIDGIDVASIGLHDLRERLTIIPQDPILFSGSLRMNLDPFNKYSDEEVWRALELAHLRSFVSGLQLGLLSEVTEGGDNLSIGQRQLLCLGRAVLRKSKILVLDEATAAVDLETDSLIQTTIRKEFSQCTVITIAHRLHTIMDSDKIMVLDNGKIVEYGSPEELLSNRGSFYLMAKEAGIENVNHTEL
What is called Km is the concentration of substrate that gives half-maximal velocity. In the case of B1, the Km came to 75 µM.
